Laboratory results from US20230235058A1 (OXFORD UNIVERSITY INNOVATION, published 2023).
Where a chain is given by its changes, count along the chain named. Names and notes keep the numbering of the source.

T1: human FcγR2B (human, UniProt P31994 43-217)
T1 construct: extracellular domain; also called hFcγR2B; CD32B
T1 sequence (looked up): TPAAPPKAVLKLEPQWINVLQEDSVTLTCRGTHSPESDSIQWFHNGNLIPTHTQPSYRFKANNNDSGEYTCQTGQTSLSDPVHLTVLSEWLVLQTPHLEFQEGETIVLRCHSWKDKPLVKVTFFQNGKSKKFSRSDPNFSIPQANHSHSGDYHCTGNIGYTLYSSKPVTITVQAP

T2: human FcγR2A 131R (human, UniProt P12318 34-217)
T2 construct: extracellular domain
T2 sequence (looked up): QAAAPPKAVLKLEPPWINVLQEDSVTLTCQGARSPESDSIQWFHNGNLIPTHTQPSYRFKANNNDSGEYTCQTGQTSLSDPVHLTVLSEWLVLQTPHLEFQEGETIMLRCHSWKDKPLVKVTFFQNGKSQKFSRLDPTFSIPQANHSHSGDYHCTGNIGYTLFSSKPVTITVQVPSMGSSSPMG

T3: human FcγR2A 131H (human, UniProt P12318 34-217)
T3 construct: extracellular domain
T3 sequence (looked up): T2 sequence (looked up) with R134H

B1: humanised 2.8.6 hIgG1 (antibody)
heavy: not shown
VL: EIVLTQSPATLSLSPGERATLSCRASSSVSYMHWYQQKPGQAPRPLIYATSNRATGIPARFSGSGSGTDYTLTISSLEPEDFAVYYCHQWSSNPYTFGQGTKLEIKRTVAAPSVFIFPPSDEQLKSGTASVVCLLNNFYPREAKVQWKVDNALQSGNSQESVTEQDSKDSTYSLSSTLTLSKADYEKHKVYACEVTHQGLSSPVTKSFNRGEC
notes: Fc variant with the variable domains of humanised 2.8.6; not shown: human IgG1 heavy chain constant region; copies: 2 + 2
B2: humanised 2.8.6 hIgG4 P238D (antibody)
heavy: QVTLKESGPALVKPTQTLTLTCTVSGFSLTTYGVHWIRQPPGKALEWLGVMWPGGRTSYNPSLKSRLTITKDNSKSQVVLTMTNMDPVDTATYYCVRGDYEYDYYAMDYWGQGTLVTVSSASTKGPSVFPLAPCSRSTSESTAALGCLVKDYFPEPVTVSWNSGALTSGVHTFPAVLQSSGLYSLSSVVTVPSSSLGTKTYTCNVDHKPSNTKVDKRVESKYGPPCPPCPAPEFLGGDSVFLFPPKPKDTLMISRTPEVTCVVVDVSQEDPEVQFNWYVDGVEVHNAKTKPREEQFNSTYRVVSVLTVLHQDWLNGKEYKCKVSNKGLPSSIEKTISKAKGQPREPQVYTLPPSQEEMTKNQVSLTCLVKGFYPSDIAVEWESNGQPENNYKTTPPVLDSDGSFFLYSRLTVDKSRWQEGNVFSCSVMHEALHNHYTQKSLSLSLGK
VL: B1 VL
notes: Fc variant with the variable domains of humanised 2.8.6; not shown: human IgG4 heavy chain constant region; copies: 2 + 2
B3: humanised 2.8.6 hIgG1 D265A G236D (antibody)
heavy: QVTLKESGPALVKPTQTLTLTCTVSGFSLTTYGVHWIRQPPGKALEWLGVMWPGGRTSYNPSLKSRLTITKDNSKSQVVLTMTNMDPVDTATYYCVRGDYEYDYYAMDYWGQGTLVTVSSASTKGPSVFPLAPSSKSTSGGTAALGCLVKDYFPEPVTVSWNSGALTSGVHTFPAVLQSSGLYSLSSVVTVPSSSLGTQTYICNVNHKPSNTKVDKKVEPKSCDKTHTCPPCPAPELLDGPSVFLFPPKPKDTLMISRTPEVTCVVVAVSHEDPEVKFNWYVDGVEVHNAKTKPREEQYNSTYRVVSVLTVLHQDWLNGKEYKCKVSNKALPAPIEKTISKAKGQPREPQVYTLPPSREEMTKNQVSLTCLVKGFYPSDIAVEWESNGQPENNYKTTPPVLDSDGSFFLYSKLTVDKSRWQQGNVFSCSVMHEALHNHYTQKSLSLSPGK
light: B1 VL
notes: Fc variant with the variable domains of humanised 2.8.6; copies: 2 + 2
B4: humanised 2.8.6 hIgG1 D265A G236D S267E (antibody)
heavy: QVTLKESGPALVKPTQTLTLTCTVSGFSLTTYGVHWIRQPPGKALEWLGVMWPGGRTSYNPSLKSRLTITKDNSKSQVVLTMTNMDPVDTATYYCVRGDYEYDYYAMDYWGQGTLVTVSSASTKGPSVFPLAPSSKSTSGGTAALGCLVKDYFPEPVTVSWNSGALTSGVHTFPAVLQSSGLYSLSSVVTVPSSSLGTQTYICNVNHKPSNTKVDKKVEPKSCDKTHTCPPCPAPELLDGPSVFLFPPKPKDTLMISRTPEVTCVVVAVEHEDPEVKFNWYVDGVEVHNAKTKPREEQYNSTYRVVSVLTVLHQDWLNGKEYKCKVSNKALPAPIEKTISKAKGQPREPQVYTLPPSREEMTKNQVSLTCLVKGFYPSDIAVEWESNGQPENNYKTTPPVLDSDGSFFLYSKLTVDKSRWQQGNVFSCSVMHEALHNHYTQKSLSLSPGK
light: B1 VL
notes: as for B3
B5: humanised 2.8.6 hIgG1 D265A S267E (antibody)
heavy: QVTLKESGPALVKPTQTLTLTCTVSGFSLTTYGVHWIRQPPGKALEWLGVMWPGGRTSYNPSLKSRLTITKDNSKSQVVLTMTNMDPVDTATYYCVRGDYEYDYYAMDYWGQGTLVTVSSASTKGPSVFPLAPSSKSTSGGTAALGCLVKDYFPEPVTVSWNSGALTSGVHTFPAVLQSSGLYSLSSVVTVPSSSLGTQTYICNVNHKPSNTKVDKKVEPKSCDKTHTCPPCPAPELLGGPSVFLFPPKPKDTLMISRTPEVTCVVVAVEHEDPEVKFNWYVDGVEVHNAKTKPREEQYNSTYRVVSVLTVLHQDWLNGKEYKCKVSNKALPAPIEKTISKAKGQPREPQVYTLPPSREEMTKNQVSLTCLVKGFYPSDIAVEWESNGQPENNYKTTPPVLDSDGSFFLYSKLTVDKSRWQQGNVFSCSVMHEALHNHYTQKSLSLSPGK
light: B1 VL
notes: as for B3
B6: humanised 2.8.6 hIgG1 D265A A330R (antibody)
heavy: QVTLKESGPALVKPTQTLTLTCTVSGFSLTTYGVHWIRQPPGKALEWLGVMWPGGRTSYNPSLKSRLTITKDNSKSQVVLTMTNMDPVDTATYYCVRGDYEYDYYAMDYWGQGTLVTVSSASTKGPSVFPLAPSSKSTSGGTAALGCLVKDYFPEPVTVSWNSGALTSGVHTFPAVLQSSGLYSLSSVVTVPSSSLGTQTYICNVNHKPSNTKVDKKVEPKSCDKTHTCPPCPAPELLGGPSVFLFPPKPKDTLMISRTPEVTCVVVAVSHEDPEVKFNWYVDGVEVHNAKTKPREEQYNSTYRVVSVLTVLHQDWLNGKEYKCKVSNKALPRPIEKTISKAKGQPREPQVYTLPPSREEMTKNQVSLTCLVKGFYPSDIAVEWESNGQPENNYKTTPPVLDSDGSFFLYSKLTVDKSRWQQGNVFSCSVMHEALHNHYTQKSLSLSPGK
light: B1 VL
notes: as for B3
B7: humanised 2.8.6 hIgG1 P238D G237D P271G A330R (V9) (antibody)
heavy: B4 heavy with D239G, G240D, P241D, A268D, E270S, P274G, A333R
light: B1 VL
notes: Fc variant with the variable domains of humanised 2.8.6; also called 2.8.6 hIgG1 V9; hIgG1 V9 isotype; copies: 2 + 2
B8: humanised 2.8.6 hIgG1 D265A (antibody)
heavy: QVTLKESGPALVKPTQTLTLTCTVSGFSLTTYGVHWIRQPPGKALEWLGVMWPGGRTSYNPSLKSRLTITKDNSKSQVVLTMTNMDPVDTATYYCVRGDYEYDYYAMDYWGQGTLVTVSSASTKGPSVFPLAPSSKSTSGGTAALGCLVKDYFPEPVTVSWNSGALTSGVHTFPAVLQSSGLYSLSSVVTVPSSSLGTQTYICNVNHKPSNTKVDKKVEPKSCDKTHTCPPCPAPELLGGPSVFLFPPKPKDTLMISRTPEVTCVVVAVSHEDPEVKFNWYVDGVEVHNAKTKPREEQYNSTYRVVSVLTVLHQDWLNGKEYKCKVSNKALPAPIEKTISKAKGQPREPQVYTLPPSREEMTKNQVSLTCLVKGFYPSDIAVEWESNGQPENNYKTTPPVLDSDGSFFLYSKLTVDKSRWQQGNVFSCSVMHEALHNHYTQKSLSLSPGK
light: B1 VL
notes: as for B3
B9: humanised 2.8.6 hIgG1 D265A G236D A330R (antibody)
heavy: B4 heavy with E270S, A333R
light: B1 VL
notes: as for B3

Key:
human FcRn = target: T4, human FcRn (human, UniProt P55899 24-297; P61769 21-119, limits assumed, biotinylated); assay: SPR, pH6.0
T4 construct: bought; also called FcRn pH6
Procedure: (§1) For the high affinity FcR interactions (FcγR1A, and also FcRn assessed at pH6.0) the binding was assessed in a kinetic analysis with antibody as analyte. […] Reference flow cell 1 was left empty in all channels. Purified antibody was then injected at a single concentration and on/off rates calculated by curve fitting on BiaEvaluation software. […] IgG Fc has two binding sites for FcRn so this assessment performed with FcRn immobilised at high density provides an avidity estimate for the interaction rather than a true KD.

human FcγR1A [1] = target: T5, human FcγR1A (human, UniProt P12314 16-288, biotinylated); assay: SPR 37C, kinetic; wild-type hIgG1 Fc
T5 construct: bought; also called CD64A
Procedure: (§2) For the high affinity FcR interactions (FcγR1A, and also FcRn assessed at pH6.0) the binding was assessed in a kinetic analysis with antibody as analyte. […] Reference flow cell 1 was left empty in all channels. Purified antibody was then injected at a single concentration and on/off rates calculated by curve fitting on BiaEvaluation software.

human FcγR3A 158F [2] = target: T6, human FcγR3A 158F (human, UniProt P08637 17-208); assay: SPR 37C, steady state; wild-type hIgG1 Fc
T6 construct: extracellular domain
Procedure: (§3) For the low affinity FcγRs (FcγR2A, FcγR2B, FcγR3A and FcγR3B) the interactions were assessed by surface plasmon resonance with the recombinantly expressed FcRs (extracellular domains only) as analyte. Briefly, recombinant human BTLA extracellular domain (BTLA^K31-R151) was covalently immobilised to both flow cells of all channels of a CMS Series S sensor chip using the GE Healthcare Amine coupling kit. The 2.8.6 Fc variant to be assessed was then captured (approx. 500-1000 response units) in flow cell 2 of each channel. Steady state affinity analysis was then performed by injecting varying concentrations of FcR in multiple cycles and measuring equilibrium binding. Double referencing was used (subtracting the signal in the reference Fc1 and also subtracting the signal from a blank zero concentration injection). KDs were calculated from the Langmuir curves (plotting equilibrium binding against analyte concentration to determine the concentration required for half maximal binding).

human FcγR2B [3] = target: T1, human FcγR2B; assay: SPR 37C, steady state; wild-type hIgG1 Fc
Procedure: as §3

human FcγR2A 131R [4] = target: T2, human FcγR2A 131R; assay: SPR 37C, steady state; wild-type hIgG1 Fc
Procedure: as §3

human FcγR2A 131H [5] = target: T3, human FcγR2A 131H; assay: SPR 37C, steady state; wild-type hIgG1 Fc
Procedure: as §3

human FcγR3B [6] = target: T7, human FcγR3B (human, UniProt O75015 17-200, limits assumed); assay: SPR 37C, steady state; wild-type hIgG1 Fc
T7 construct: extracellular domain; also called CD16B
Procedure: as §3

human FcγR3A 158V [7] = target: T8, human FcγR3A 158V (human, UniProt P08637 17-208); assay: SPR 37C, steady state; wild-type hIgG1 Fc
T8 construct: extracellular domain
Procedure: as §3

human FcγR2B [8] = target: T1, human FcγR2B; assay: SPR 37C, steady state;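 also: fc variants captured on chip-bound human BTLA ectodomain, recombinant FcγR ectodomains injected as analyte at varied concentrations, double-referenced equilibrium binding fitted to Langmuir model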
Procedure: as §3

human FcγR2A 131R [9] = target: T2, human FcγR2A 131R; assay: SPR 37C, steady state;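 also: fc variants captured on chip-bound human BTLA ectodomain, recombinant FcγR ectodomains injected as analyte at varied concentrations, double-referenced equilibrium binding fitted to Langmuir model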
Procedure: as §3

human FcγR2A 131H [10] = target: T3, human FcγR2A 131H; assay: SPR 37C, steady state; hIgG4 P238D Fc variant
Procedure: (§4) For the low affinity FcγRs (FcγR2A, FcγR2B, FcγR3A and FcγR3B) the interactions were assessed by surface plasmon resonance with the recombinantly expressed FcRs (extracellular domains only) as analyte. […] The 2.8.6 Fc variant to be assessed was then captured (approx. 500-1000 response units) in flow cell 2 of each channel. Steady state affinity analysis was then performed by injecting varying concentrations of FcR in multiple cycles and measuring equilibrium binding. Double referencing was used (subtracting the signal in the reference Fc1 and also subtracting the signal from a blank zero concentration injection). KDs were calculated from the Langmuir curves (plotting equilibrium binding against analyte concentration to determine the concentration required for half maximal binding).

human FcγR3A 158F [11] = target: T6, human FcγR3A 158F; assay: SPR 37C, steady state;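 also: fc variants captured on chip-bound human BTLA ectodomain, recombinant FcγR ectodomains injected as analyte at varied concentrations, double-referenced equilibrium binding fitted to Langmuir model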
Procedure: as §3

human FcγR2A 131H [12] = target: T3, human FcγR2A 131H; assay: SPR 37C, steady state;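 also: fc variants captured on chip-bound human BTLA ectodomain, recombinant FcγR ectodomains injected as analyte at varied concentrations, double-referenced equilibrium binding fitted to Langmuir model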
Procedure: as §3

human FcγR3B [13] = target: T7, human FcγR3B; assay: SPR 37C, steady state
Procedure: as §3

human FcγR3A 158V [14] = target: T8, human FcγR3A 158V; assay: SPR 37C, steady state
Procedure: as §3

human FcγR1A [15] = target: T5, human FcγR1A; assay: SPR 37C, kinetic
Procedure: as §2

human FcγR2B [16] = target: T1, human FcγR2B; assay: SPR 37C, steady state; hIgG1 D265A G236D Fc variant
Procedure: as §3

human FcγR3A 158V [17] = target: T8, human FcγR3A 158V; assay: SPR 37C, steady state; hIgG1 D265A G236D S267E Fc variant
Procedure: as §4

human FcγR1A [18] = target: T5, human FcγR1A; assay: SPR 37C, kinetic; hIgG1 D265A S267E Fc variant
Procedure: as §2

human FcγR3B [19] = target: T7, human FcγR3B; assay: SPR 37C, steady state; hIgG1 D265A A330R Fc variant
Procedure: as §3

human FcγR2B [20] = target: T1, human FcγR2B; assay: SPR (Example 23)
Procedure: as §3

human FcγR1A [21] = target: T5, human FcγR1A; assay: SPR 37C, kinetic; hIgG1 P238D G237D P271G A330R (V9) Fc variant
Procedure: as §1

human FcγR3A 158F [22] = target: T6, human FcγR3A 158F; assay: SPR 37C, steady state; hIgG1 P238D G237D P271G A330R (V9) Fc variant
Procedure: as §3

human FcγR2B [23] = target: T1, human FcγR2B; assay: as above
Procedure: as §3

human FcγR2A 131R [24] = target: T2, human FcγR2A 131R; assay: as above
Procedure: as §3

human FcγR2A 131H [25] = target: T3, human FcγR2A 131H; assay: as above
Procedure: as §3

human FcγR3B [26] = target: T7, human FcγR3B; assay: as above
Procedure: as §3

human FcγR3A 158V [27] = target: T8, human FcγR3A 158V; assay: as above
Procedure: as §3

human FcγR3A 158F [28] = target: T6, human FcγR3A 158F; assay: SPR 37C, steady state; hIgG1 D265A Fc variant
Procedure: as §3

human FcγR3B [29] = target: T7, human FcγR3B; assay: SPR 37C, steady state; hIgG1 D265A Fc variant
Procedure: as §3

human FcγR1A [30] = target: T5, human FcγR1A; assay: SPR 37C, kinetic; hIgG1 D265A Fc variant
Procedure: as §2

human FcγR2B [31] = target: T1, human FcγR2B; assay: SPR 37C, steady state; hIgG1 D265A G236D A330R Fc variant
Procedure: as §4

T6 sequence (P08637 17-208): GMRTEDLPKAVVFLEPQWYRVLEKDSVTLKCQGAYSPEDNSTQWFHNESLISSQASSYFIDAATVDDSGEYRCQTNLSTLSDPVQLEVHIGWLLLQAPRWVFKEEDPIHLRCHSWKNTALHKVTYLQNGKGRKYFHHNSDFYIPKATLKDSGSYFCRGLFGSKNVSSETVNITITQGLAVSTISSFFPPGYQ
T4 sequence (P55899 24-297 limits assumed, chain 1 of 2): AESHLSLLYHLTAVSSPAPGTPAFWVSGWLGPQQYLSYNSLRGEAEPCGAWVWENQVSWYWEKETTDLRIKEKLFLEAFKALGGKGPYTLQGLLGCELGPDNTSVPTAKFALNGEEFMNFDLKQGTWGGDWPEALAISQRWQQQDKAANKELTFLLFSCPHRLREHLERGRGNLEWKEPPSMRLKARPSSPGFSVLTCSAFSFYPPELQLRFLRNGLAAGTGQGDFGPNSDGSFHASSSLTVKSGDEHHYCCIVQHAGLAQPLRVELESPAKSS
T4 sequence (P61769 21-119 limits assumed, chain 2 of 2): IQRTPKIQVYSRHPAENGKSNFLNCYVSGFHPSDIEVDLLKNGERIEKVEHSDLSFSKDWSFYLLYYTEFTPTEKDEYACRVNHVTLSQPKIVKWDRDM
T7 sequence (O75015 17-200 limits assumed): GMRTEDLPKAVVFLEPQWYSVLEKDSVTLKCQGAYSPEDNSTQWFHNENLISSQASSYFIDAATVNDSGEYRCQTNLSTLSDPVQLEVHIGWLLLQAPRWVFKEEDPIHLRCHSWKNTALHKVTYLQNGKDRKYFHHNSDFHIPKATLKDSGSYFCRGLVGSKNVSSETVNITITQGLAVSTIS
T8 sequence (P08637 17-208 F176V): as the sequence (P08637 17-208) above, with F160V counted along it
T5 sequence (P12314 16-288): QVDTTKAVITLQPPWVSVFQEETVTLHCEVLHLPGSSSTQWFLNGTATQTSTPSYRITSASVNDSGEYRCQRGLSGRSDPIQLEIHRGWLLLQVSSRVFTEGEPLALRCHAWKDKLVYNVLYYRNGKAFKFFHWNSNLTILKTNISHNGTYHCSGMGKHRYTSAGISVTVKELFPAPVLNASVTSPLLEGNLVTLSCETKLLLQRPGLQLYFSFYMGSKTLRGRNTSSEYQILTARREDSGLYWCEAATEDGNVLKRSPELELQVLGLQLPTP

Row | Binder | avidity (FcRn pH6) (human FcRn) | Kd (human FcγR2B [8]) | Kd (human FcγR2A 131R [9]) | binding result (human FcγR3A 158F [11]) | binding result (human FcγR3B [13]) | binding result (human FcγR3A 158V [14]) | binding result (human FcγR1A [15]) | Kd (human FcγR2A 131H [12]) | further results
1 | B1 | 4.58 nM | – | – | – | – | – | – | – | Kd (human FcγR1A [1]): 0.00375 µM; Kd (human FcγR3A 158F [2]): 9.37 µM; Kd (human FcγR2B [3]): 8.65 µM; Kd (human FcγR2A 131R [4]): 1.57 µM; Kd (human FcγR2A 131H [5]): 1.98 µM; Kd (human FcγR3B [6]): 22.9 µM; Kd (human FcγR3A 158V [7]): 2.78 µM
2 | B2 | – | 17.5 µM | 47.9 µM | – | – | – | – | – | Kd (human FcγR2A 131H [10]): 312 µM
3 | B3 | 14 nM | – | 91.4 µM | no binding | no binding | no binding | no binding | – | binding result (human FcγR2A 131H [12]): no binding; Kd (human FcγR2B [16]): 748 µM
4 | B4 | 18.7 nM | 113 µM | 61.8 µM | no binding | no binding | – | no binding | – | binding result (human FcγR2A 131H [12]): no binding; Kd (human FcγR3A 158V [17]): 1650 µM
5 | B5 | 11.9 nM | 157 µM | 26.7 µM | no binding | no binding | no binding | – | 173 µM | Kd (human FcγR1A [18]): 0.415 µM
6 | B6 | – | 347 µM | 67 µM | no binding | – | no binding | – | 39.4 µM | Kd (human FcγR3B [19]): 9100 µM
7 | B7 | 1.98 nM | – | – | – | – | – | – | – | fold higher affinity than the P238D isotype (human FcγR2B [20]): ~30 fold; Kd (human FcγR1A [21]): 0.697 µM; Kd (human FcγR3A 158F [22]): 216 µM; Kd (human FcγR2B [23]): 0.173 µM; Kd (human FcγR2A 131R [24]): 1.84 µM; Kd (human FcγR2A 131H [25]): 26.2 µM; Kd (human FcγR3B [26]): 6090 µM; Kd (human FcγR3A 158V [27]): 321 µM
8 | B8 | 12 nM | 193 µM | 48.3 µM | – | – | no binding | – | 40.1 µM | Kd (human FcγR3A 158F [28]): 1490 µM; Kd (human FcγR3B [29]): 5200 µM; Kd (human FcγR1A [30]): 0.497 µM
9 | B9 | 14 nM | – | 91.8 µM | no binding | no binding | no binding | no binding | 91.3 µM | Kd (human FcγR2B [31]): 398 µM
